Variants at the floor of the assay were thinned out.
Legend:
[1] = test system: biotinyl-Ile-oxazolone; assay: self-aminoacylation, catalytic enhancement (BIO) (fold over background); higher = more active; k-Seq, kA / k0A0; sequences stand for … in GGGAAUGGAUCCACAUCUACGAAUUC…UUCACUGCAGACUUGACGAAGCUG
In short: (§1)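 Working in 50 μL HEPES/NaCl/KCl/MgCl2/CaCl2 buffer with 5% acetonitrile at pH 6.9–7.0, mutagenized RNA pools (0.43 μM; 21-nt variable region) were reacted with 2–1250 μM of each biotinyl-aminoacyl-oxazolone for 90 minutes at room temperature. Streptavidin capture followed, with quantification by triplicate qPCR and Illumina sequencing. Catalytic enhancement is reported as median kA over the uncatalyzed rate, the low-activity peak of a bimodal Gaussian fit to the data.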

[2] = test system: biotinyl-Phe-oxazolone; assay: self-aminoacylation, catalytic enhancement (BFO) (fold over background); higher = more active; k-Seq, kA / k0A0; sequences stand for … in GGGAAUGGAUCCACAUCUACGAAUUC…UUCACUGCAGACUUGACGAAGCUG
In short: as §1

[3] = test system: biotinyl-Met-oxazolone; assay: self-aminoacylation, catalytic enhancement (BMO) (fold over background); higher = more active; k-Seq, kA / k0A0; sequences stand for … in GGGAAUGGAUCCACAUCUACGAAUUC…UUCACUGCAGACUUGACGAAGCUG
In short: as §1

[4] = test system: biotinyl-Val-oxazolone; assay: self-aminoacylation, catalytic enhancement (BVO) (fold over background); higher = more active; k-Seq, kA / k0A0; sequences stand for … in GGGAAUGGAUCCACAUCUACGAAUUC…UUCACUGCAGACUUGACGAAGCUG
In short: as §1

[5] = test system: biotinyl-Trp-oxazolone; assay: self-aminoacylation, catalytic enhancement (BWO) (fold over background); higher = more active; k-Seq, kA / k0A0; sequences stand for … in GGGAAUGGAUCCACAUCUACGAAUUC…UUCACUGCAGACUUGACGAAGCUG
In short: as §1

[6] = test system: biotinyl-Leu-oxazolone; assay: self-aminoacylation, catalytic enhancement (BLO) (fold over background); higher = more active; k-Seq, kA / k0A0; sequences stand for … in GGGAAUGGAUCCACAUCUACGAAUUC…UUCACUGCAGACUUGACGAAGCUG
In short: as §1

Sequence	self-aminoacylation [1]	self-aminoacylation [2]	self-aminoacylation [3]	self-aminoacylation [4]	self-aminoacylation [5]	self-aminoacylation [6]
ACGAUUGCUAAUAGUCGCAAG [Fam3.1 aminoacylation ribozyme variant]	1.35	1.54	1.23	1.43	0.96	1.57
ACGGUUGCUAAUAGUCGCAAG [Fam3.1 aminoacylation ribozyme variant]	1.3	2.51	1.19	1.32	1.38	1.31
ACGUGUGCUAAUAGUCGCAAG [Fam3.1 aminoacylation ribozyme variant]	1.6	4.86	1.62	1.28	1.63	1.68
ACGUUUGCAAAUAGUCGCAAG [Fam3.1 aminoacylation ribozyme variant]	1.57	1.27	1.38	1.2	1.2	1.29
ACGUUUGCUAAUUGUCGCAAG [Fam3.1 aminoacylation ribozyme variant]	1.6	1.96	1.81	1.77	2.66	2.06
ACUACCCUAGUCAUCGAGUGA [Fam2.1 aminoacylation ribozyme variant]	2.95	8.71	4.62	2.64	5.01	5.39
ACUACCCUGGUCAGCGAGUGA [Fam2.1 aminoacylation ribozyme variant]	4.51	38.3	6.39	4.6	6.58	6.39
ACUACCCUGGUCAUCGGGUGA [Fam2.1 aminoacylation ribozyme variant]	20.6	293	48	20.9	57.6	50.1
ACUACCCUGUUCAUCGAGUGA [Fam2.1 aminoacylation ribozyme variant]	2.28	6.68	3.17	2.33	5.04	3.27
ACUACUCUGGUCAUCGAGUGA [Fam2.1 aminoacylation ribozyme variant]	4.09	36.2	5.17	3.45	7.79	8.12
ACUCACCCAGGUCAUCGGGUG [Fam2.2 aminoacylation ribozyme variant]	4	26.2	4.37	4.51	4.81	5.25
ACUCACCUAGGUCAUCCGGUG [Fam2.2 aminoacylation ribozyme variant]	4.6	39.5	6.22	5.7	7.81	7.63
ACUCACCUAGGUCAUCGAGUG [Fam2.2 aminoacylation ribozyme variant]	2.85	7.77	3.27	2.86	2.72	4.67
ACUCACCUAGGUCAUCGGGUA [Fam2.2 aminoacylation ribozyme variant]	11.4	157	19.9	10.1	14.9	27
ACUCACCUAGGUCCUCGGGUG [Fam2.2 aminoacylation ribozyme variant]	5.2	37.1	5.36	4.46	8.03	5.78
ACUCACCUAGGUCGUCGGGUG [Fam2.2 aminoacylation ribozyme variant]	2.58	6.16	2.56	2.4	3.42	2.25
ACUCACCUAGGUGAUCGGGUG [Fam2.2 aminoacylation ribozyme variant]	5.05	39.2	5.21	4.87	8.44	6.01
ACUCACCUAUGUCAUCGGGUG [Fam2.2 aminoacylation ribozyme variant]	4.11	33.4	5.4	4.18	6.08	6.52
ACUCACCUUGGUCAUCGGGUG [Fam2.2 aminoacylation ribozyme variant]	4.9	37.8	6.92	5.78	9.04	7.85
ACUCCCCUAGGUCAUCGGGUG [Fam2.2 aminoacylation ribozyme variant]	8.61	101	13.7	10.3	13.8	18.6
ACUCUCCUAGGUCAUCGGGUG [Fam2.2 aminoacylation ribozyme variant]	5.49	49.4	8.52	5.61	8.31	10.2
ACUGACCUAGGUCAUCGGGUG [Fam2.2 aminoacylation ribozyme variant]	4.97	32.9	6.84	5	7.32	7.25
ACUUACCUAGGUCAUCGGGUG [Fam2.2 aminoacylation ribozyme variant]	7.28	48.7	10.6	5.61	10.1	10.8
AGCACCCUGGUCAUCGAGUGA [Fam2.1 aminoacylation ribozyme variant]	4.58	6.9	8.03	3.89	9.35	6.84
AGGACCCUGGUCAUCGAGUGA [Fam2.1 aminoacylation ribozyme variant]	4.59	36.7	10.5	5.05	10.7	10.9
AGGAUUGCUAAUAGUCGCAAG [Fam3.1 aminoacylation ribozyme variant]	1.62	2.92	1.52	1.88	2.52	1.66

Sequence	self-aminoacylation [1]	self-aminoacylation [2]	self-aminoacylation [3]	self-aminoacylation [4]	self-aminoacylation [5]	self-aminoacylation [6]
AGGUUCGCUAAUAGUCGCAAG [Fam3.1 aminoacylation ribozyme variant]	2.82	12.3	2.81	2.34	4.12	3.26
AGGUUUGCUAAUAGCCGCAAG [Fam3.1 aminoacylation ribozyme variant]	1.2	4.78	1.15	0.935	2.25	1.11
AGGUUUGCUAAUAGUAGCAAG [Fam3.1 aminoacylation ribozyme variant]	1.49	1.05	1.41	1.22	2.18	1.43
AGGUUUGCUAAUAGUCCCAAG [Fam3.1 aminoacylation ribozyme variant]	0.901	4.38	0.915	0.872	1.97	0.779
AGGUUUGCUAAUAGUCGCAAG [Fam3.1 aminoacylation ribozyme variant]	1.56	22	1.75	1.38	6.61	1.41
AGGUUUGCUAAUAGUCGCAGG [Fam3.1 aminoacylation ribozyme variant]	1.97	4.15	2.21	1.52	1.99	1.7
AGGUUUGCUAAUAGUCGCCAG [Fam3.1 aminoacylation ribozyme variant]	1.39	1.14	1.51	1.35	2.22	1.52
AGGUUUGCUAAUAGUCGCGAG [Fam3.1 aminoacylation ribozyme variant]	1.56	2.48	1.65	1.78	2.59	1.61
AGGUUUGCUAAUAGUCGUAAG [Fam3.1 aminoacylation ribozyme variant]	1.22	29.2	1.23	1.08	7.24	1.1
AGGUUUGCUGAUAGUCGCAAG [Fam3.1 aminoacylation ribozyme variant]	1.49	2.52	1.53	1.2	1.83	1.83
AGUAACCUGGUCAUCGAGUGA [Fam2.1 aminoacylation ribozyme variant]	3.32	16.8	5.06	3.25	4.62	5.02
AGUACCCUGCUCAUCGAGUGA [Fam2.1 aminoacylation ribozyme variant]	1.2	1.88	2.06	1.28	1.88	1.77
AGUACCCUGGGCAUCGAGUGA [Fam2.1 aminoacylation ribozyme variant]	2.96	47	6.28	3.16	7.71	6.54
AGUACCCUGGUCACCGAGUGA [Fam2.1 aminoacylation ribozyme variant]	4.52	54.5	8.83	4.11	11.1	9.52
AGUACCCUGGUCAUAGAGUGA [Fam2.1 aminoacylation ribozyme variant]	2.33	15.4	4.15	2.48	4.67	4.1
AGUACCCUGGUCAUCGAGUGG [Fam2.1 aminoacylation ribozyme variant]	2.26	6.94	5.15	2.65	4.19	4.23
AGUACCCUGGUCAUCGAGUGU [Fam2.1 aminoacylation ribozyme variant]	5.14	29.9	14.2	5.27	11.7	13.6
AGUACCGUGGUCAUCGAGUGA [Fam2.1 aminoacylation ribozyme variant]	3.61	24.1	5.19	3.39	5.99	5.87
AGUACCUUGGUCAUCGAGUGA [Fam2.1 aminoacylation ribozyme variant]	4.3	19	6.27	4.07	8.17	6.37
AGUAGCCUGGUCAUCGAGUGA [Fam2.1 aminoacylation ribozyme variant]	4.84	37.9	7.32	4.85	8.44	7.91
AGUCACCUAGGACAUCGGGUG [Fam2.2 aminoacylation ribozyme variant]	4.13	26.6	4.24	5.02	6.31	4.11
AGUCACCUAGGUCAUCGGGUU [Fam2.2 aminoacylation ribozyme variant]	4.28	21.7	5.25	4.18	4.8	7.09
AGUCACCUAGGUCUUCGGGUG [Fam2.2 aminoacylation ribozyme variant]	6.51	56.4	6.75	6.48	8.99	8.46
AGUCACCUAUGUCAUCGGGUG [Fam2.2 aminoacylation ribozyme variant]	3.74	31.8	4.37	3.19	4.85	4.74
AGUCACCUGGGUCAUCGGGUG [Fam2.2 aminoacylation ribozyme variant]	4.56	35.4	3.98	4.96	5.64	4.04

From the supplement of paper PMC9233669
